Assays:
[1] = molecular target: Bet v 1a Y5C mutant (birch) (UniProt P15494); assay: SEC; Superdex 75 size exclusion chromatography (gel filtration) separating monomeric and dimeric forms
[2] = molecular target: Bet v 1a Y5C mutant (birch) (UniProt P15494); assay: not stated; analysis of purified Bet v 1a Y5C; method of the analysis not named; similar redox sensitivity as the dimer of the WT preparation
[3] = molecular target: dimeric Bet v 1a purified from the WT Bet v 1a preparation, with cysteine incorporated at position 5 instead of the encoded tyrosine (birch) (UniProt P15494); assay: SEC; Superdex 75 size exclusion chromatography (gel filtration) separating monomeric and dimeric forms

Row | Substance | stoichiometry N [1] | percent dimerization [2] [%] | stoichiometry N [3]
1 | Bet v 1a Y5C mutant (from UniProt P15494 1-160) (natural protein) | 2 | 90 | 
2 | dimeric Bet v 1a purified from the WT Bet v 1a preparation, with cysteine incorporated at position 5 instead of the encoded tyrosine (from UniProt P15494 1-160) (natural protein) |  |  | 2

From paper PMC3879576
